In US20170369523A1, “TEMPLATE-FIXED BETA-HAIRPIN PEPTIDOMIMETICS THAT ARE LIGANDS FOR G-PROTEIN-COUPLED RECEPTORS (GPCRS) AND ARE MODULATORS OF TRANSCRIPTION FACTORS AND COACTIVATORS” (POLYPHOR AG, priority 2008, published 2017):
Numbered stars: 1 amine (or outer) side, 2 acyl side, 3 side chain; on linkers, the order of the positions; unused ones are H or OH. Square brackets hold non-standard residues; d marks the D form. Glu(cHx) = L-glutamic acid cyclohexyl ester, O=C(CC[C@H](N[*:1])C(=O)[*:2])OC1CCCCC1; Trp(6-Cl) = N[C@@H](Cc1c[nH]c2cc(Cl)ccc12)C(=O)O; Hyp = O=C(O)[C@@H]1C[C@@H](O)CN1

T1: NCoA-1 (UniProt Q15788 257-385, limits assumed)
T1 construct: also called SRC-1
T1 sequence (looked up): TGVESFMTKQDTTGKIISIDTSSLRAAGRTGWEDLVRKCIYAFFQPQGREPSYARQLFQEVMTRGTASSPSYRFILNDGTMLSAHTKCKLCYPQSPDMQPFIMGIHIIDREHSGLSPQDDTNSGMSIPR

B1: Ex. 9 (peptide)
peptide: cyclo(FEWLAWE[Glu(cHx)][dP]P)
SMILES: CC(C)C[C@@H]1NC(=O)[C@H](Cc2c[nH]c3ccccc23)NC(=O)[C@H](CCC(=O)O)NC(=O)[C@H](Cc2ccccc2)NC(=O)[C@@H]2CCCN2C(=O)[C@H]2CCCN2C(=O)[C@H](CCC(=O)OC2CCCCC2)NC(=O)[C@H](CCC(=O)O)NC(=O)[C@H](Cc2c[nH]c3ccccc23)NC(=O)[C@H](C)NC1=O
notes: cyclo(-P1..P8-template-)
B2: Ex. 2 (peptide)
peptide: cyclo(FEWLAWEF[dP][Hyp])
SMILES: CC(C)C[C@@H]1NC(=O)[C@H](Cc2c[nH]c3ccccc23)NC(=O)[C@H](CCC(=O)O)NC(=O)[C@H](Cc2ccccc2)NC(=O)[C@@H]2C[C@@H](O)CN2C(=O)[C@H]2CCCN2C(=O)[C@H](Cc2ccccc2)NC(=O)[C@H](CCC(=O)O)NC(=O)[C@H](Cc2c[nH]c3ccccc23)NC(=O)[C@H](C)NC1=O
notes: cyclo(-P1..P8-template-)
B3: Ex. 7 (peptide)
peptide: cyclo(FEWGAWEF[dP]P)
SMILES: C[C@@H]1NC(=O)CNC(=O)[C@H](Cc2c[nH]c3ccccc23)NC(=O)[C@H](CCC(=O)O)NC(=O)[C@H](Cc2ccccc2)NC(=O)[C@@H]2CCCN2C(=O)[C@H]2CCCN2C(=O)[C@H](Cc2ccccc2)NC(=O)[C@H](CCC(=O)O)NC(=O)[C@H](Cc2c[nH]c3ccccc23)NC1=O
notes: cyclo(-P1..P8-template-)
B4: Ex. 8 (peptide)
peptide: cyclo(FEWLGWEF[dP]P)
SMILES: CC(C)C[C@@H]1NC(=O)[C@H](Cc2c[nH]c3ccccc23)NC(=O)[C@H](CCC(=O)O)NC(=O)[C@H](Cc2ccccc2)NC(=O)[C@@H]2CCCN2C(=O)[C@H]2CCCN2C(=O)[C@H](Cc2ccccc2)NC(=O)[C@H](CCC(=O)O)NC(=O)[C@H](Cc2c[nH]c3ccccc23)NC(=O)CNC1=O
notes: cyclo(-P1..P8-template-)
B5: Ex. 11 (peptide)
peptide: cyclo(FEWYAWEF[dP]P)
SMILES: C[C@@H]1NC(=O)[C@H](Cc2ccc(O)cc2)NC(=O)[C@H](Cc2c[nH]c3ccccc23)NC(=O)[C@H](CCC(=O)O)NC(=O)[C@H](Cc2ccccc2)NC(=O)[C@@H]2CCCN2C(=O)[C@H]2CCCN2C(=O)[C@H](Cc2ccccc2)NC(=O)[C@H](CCC(=O)O)NC(=O)[C@H](Cc2c[nH]c3ccccc23)NC1=O
notes: cyclo(-P1..P8-template-)
B6: Ex. 12 (peptide)
peptide: cyclo(FEWLYWEF[dP]P)
SMILES: CC(C)C[C@@H]1NC(=O)[C@H](Cc2c[nH]c3ccccc23)NC(=O)[C@H](CCC(=O)O)NC(=O)[C@H](Cc2ccccc2)NC(=O)[C@@H]2CCCN2C(=O)[C@H]2CCCN2C(=O)[C@H](Cc2ccccc2)NC(=O)[C@H](CCC(=O)O)NC(=O)[C@H](Cc2c[nH]c3ccccc23)NC(=O)[C@H](Cc2ccc(O)cc2)NC1=O
notes: cyclo(-P1..P8-template-)
B7: Ex. 16 (peptide)
peptide: cyclo(FEWLDWEM[dP]P)
SMILES: CSCC[C@@H]1NC(=O)[C@H](CCC(=O)O)NC(=O)[C@H](Cc2c[nH]c3ccccc23)NC(=O)[C@H](CC(=O)O)NC(=O)[C@H](CC(C)C)NC(=O)[C@H](Cc2c[nH]c3ccccc23)NC(=O)[C@H](CCC(=O)O)NC(=O)[C@H](Cc2ccccc2)NC(=O)[C@@H]2CCCN2C(=O)[C@H]2CCCN2C1=O
notes: cyclo(-P1..P8-template-)
B8: Ex. 17 (peptide)
peptide: cyclo(FEALDWEF[dP]P)
SMILES: CC(C)C[C@@H]1NC(=O)[C@H](C)NC(=O)[C@H](CCC(=O)O)NC(=O)[C@H](Cc2ccccc2)NC(=O)[C@@H]2CCCN2C(=O)[C@H]2CCCN2C(=O)[C@H](Cc2ccccc2)NC(=O)[C@H](CCC(=O)O)NC(=O)[C@H](Cc2c[nH]c3ccccc23)NC(=O)[C@H](CC(=O)O)NC1=O
notes: cyclo(-P1..P8-template-)
B9: Ex. 19 (peptide)
peptide: cyclo(FEWLDWEF[dP]P)
SMILES: CC(C)C[C@@H]1NC(=O)[C@H](Cc2c[nH]c3ccccc23)NC(=O)[C@H](CCC(=O)O)NC(=O)[C@H](Cc2ccccc2)NC(=O)[C@@H]2CCCN2C(=O)[C@H]2CCCN2C(=O)[C@H](Cc2ccccc2)NC(=O)[C@H](CCC(=O)O)NC(=O)[C@H](Cc2c[nH]c3ccccc23)NC(=O)[C@H](CC(=O)O)NC1=O
notes: cyclo(-P1..P8-template-)
B10: Ex. 20 (peptide)
peptide: cyclo(FEWLAWEE[dP]P)
SMILES: CC(C)C[C@@H]1NC(=O)[C@H](Cc2c[nH]c3ccccc23)NC(=O)[C@H](CCC(=O)O)NC(=O)[C@H](Cc2ccccc2)NC(=O)[C@@H]2CCCN2C(=O)[C@H]2CCCN2C(=O)[C@H](CCC(=O)O)NC(=O)[C@H](CCC(=O)O)NC(=O)[C@H](Cc2c[nH]c3ccccc23)NC(=O)[C@H](C)NC1=O
notes: cyclo(-P1..P8-template-)
B11: Ex. 21 (peptide)
peptide: cyclo(FEWLAWYF[dP]P)
SMILES: CC(C)C[C@@H]1NC(=O)[C@H](Cc2c[nH]c3ccccc23)NC(=O)[C@H](CCC(=O)O)NC(=O)[C@H](Cc2ccccc2)NC(=O)[C@@H]2CCCN2C(=O)[C@H]2CCCN2C(=O)[C@H](Cc2ccccc2)NC(=O)[C@H](Cc2ccc(O)cc2)NC(=O)[C@H](Cc2c[nH]c3ccccc23)NC(=O)[C@H](C)NC1=O
notes: cyclo(-P1..P8-template-)
B12: Ex. 22 (peptide)
peptide: cyclo(FLWLAWEF[dP]P)
SMILES: CC(C)C[C@@H]1NC(=O)[C@H](Cc2c[nH]c3ccccc23)NC(=O)[C@H](CC(C)C)NC(=O)[C@H](Cc2ccccc2)NC(=O)[C@@H]2CCCN2C(=O)[C@H]2CCCN2C(=O)[C@H](Cc2ccccc2)NC(=O)[C@H](CCC(=O)O)NC(=O)[C@H](Cc2c[nH]c3ccccc23)NC(=O)[C@H](C)NC1=O
notes: cyclo(-P1..P8-template-)
B13: Ex. 23 (peptide)
peptide: cyclo(EEWLAWEF[dP]P)
SMILES: CC(C)C[C@@H]1NC(=O)[C@H](Cc2c[nH]c3ccccc23)NC(=O)[C@H](CCC(=O)O)NC(=O)[C@H](CCC(=O)O)NC(=O)[C@@H]2CCCN2C(=O)[C@H]2CCCN2C(=O)[C@H](Cc2ccccc2)NC(=O)[C@H](CCC(=O)O)NC(=O)[C@H](Cc2c[nH]c3ccccc23)NC(=O)[C@H](C)NC1=O
notes: cyclo(-P1..P8-template-)
B14: Ex. 24 (peptide)
peptide: cyclo(FEWLAWLF[dP]P)
SMILES: CC(C)C[C@@H]1NC(=O)[C@H](Cc2c[nH]c3ccccc23)NC(=O)[C@H](CCC(=O)O)NC(=O)[C@H](Cc2ccccc2)NC(=O)[C@@H]2CCCN2C(=O)[C@H]2CCCN2C(=O)[C@H](Cc2ccccc2)NC(=O)[C@H](CC(C)C)NC(=O)[C@H](Cc2c[nH]c3ccccc23)NC(=O)[C@H](C)NC1=O
notes: cyclo(-P1..P8-template-)
B15: Ex. 27 (peptide)
peptide: cyclo(MEWLDWEF[dP]P)
SMILES: CSCC[C@@H]1NC(=O)[C@@H]2CCCN2C(=O)[C@H]2CCCN2C(=O)[C@H](Cc2ccccc2)NC(=O)[C@H](CCC(=O)O)NC(=O)[C@H](Cc2c[nH]c3ccccc23)NC(=O)[C@H](CC(=O)O)NC(=O)[C@H](CC(C)C)NC(=O)[C@H](Cc2c[nH]c3ccccc23)NC(=O)[C@H](CCC(=O)O)NC1=O
notes: cyclo(-P1..P8-template-)
B16: Ex. 13 (peptide)
peptide: cyclo(FE[Trp(6-Cl)]LDWAF[dP]P)
SMILES: CC(C)C[C@@H]1NC(=O)[C@H](Cc2c[nH]c3cc(Cl)ccc23)NC(=O)[C@H](CCC(=O)O)NC(=O)[C@H](Cc2ccccc2)NC(=O)[C@@H]2CCCN2C(=O)[C@H]2CCCN2C(=O)[C@H](Cc2ccccc2)NC(=O)[C@H](C)NC(=O)[C@H](Cc2c[nH]c3ccccc23)NC(=O)[C@H](CC(=O)O)NC1=O
notes: cyclo(-P1..P8-template-)
B17: Ex. 14 (peptide)
peptide: cyclo(FA[Trp(6-Cl)]LDWEF[dP]P)
SMILES: CC(C)C[C@@H]1NC(=O)[C@H](Cc2c[nH]c3cc(Cl)ccc23)NC(=O)[C@H](C)NC(=O)[C@H](Cc2ccccc2)NC(=O)[C@@H]2CCCN2C(=O)[C@H]2CCCN2C(=O)[C@H](Cc2ccccc2)NC(=O)[C@H](CCC(=O)O)NC(=O)[C@H](Cc2c[nH]c3ccccc23)NC(=O)[C@H](CC(=O)O)NC1=O
notes: cyclo(-P1..P8-template-)
B18: Ex. 18 (peptide)
peptide: cyclo(FE[Trp(6-Cl)]LDAEF[dP]P)
SMILES: CC(C)C[C@@H]1NC(=O)[C@H](Cc2c[nH]c3cc(Cl)ccc23)NC(=O)[C@H](CCC(=O)O)NC(=O)[C@H](Cc2ccccc2)NC(=O)[C@@H]2CCCN2C(=O)[C@H]2CCCN2C(=O)[C@H](Cc2ccccc2)NC(=O)[C@H](CCC(=O)O)NC(=O)[C@H](C)NC(=O)[C@H](CC(=O)O)NC1=O
notes: cyclo(-P1..P8-template-)

Target: T1, NCoA-1
Assay: competition fluorescence polarization; displacement of FluoSTAT6 from NCoA-1
Procedure: The mixtures were shaken thoroughly. Fluorescence polarization was measured on a SPECTRAmax M5 spectrometer (Molecular device) following 5-30 min incubation at room temperature. FluoSTAT6 was excited at 490 nm and emission polarization was detected at 525 nm. 40 intensity measurements were collected for each well, 20 at horizontal position of the dynamic polarizer, 20 at parallel position. As the fraction of FluoSTAT6 bound to NCoA-1 is correlated to the fluorescence polarization (FP), after normalization, the fraction of bound FluoSTAT6 (B) was determined, and the KD was calculated according to B=[(1+P/R+KD/R)−((1+P/R+KD/R)²−4P/R)^{0.5}]/2, wherein P is the total probe concentration, R the total protein concentration and KD the dissociation constant (M. H. Roehrl, J. Y. Wang, G. Wagner, Biochemistry 2004, 3, 16056).
To determine the Kᵢ values of potential inhibitors of the STAT6/NCoA-1 interaction (competition fluorescence polarization) the compounds (dilution series from 0 to 100 μM final concentration) dissolved in HEPES buffer (10 mM HEPES, 150 mM NaCl, 3.4 mM EDTA, 0.1% BSA) were dispensed in a black 96 well plate (Greiner) and FluoSTAT6 (200 nM final concentration) in HEPES buffer was added. The mixture was completed by a HEPES buffer solution of NCoA-1 (1 μM final concentration) and processed as described above. STAT6Y (C-terminal tyrosine extended STAT6 794-814 peptide) was used as a positive control. As the total fluorescence intensity of FluoSTAT6 remains similar for all samples, the fraction of peptide bound to NCoA-1 is correlated to the fluorescence polarization.
Following normalization data were fitted with IGORpro Software® (WaveMetrics, Lake Oswego, Oreg., USA) to a sigmoid equation to determine IC₅₀ values.

| Binder | Ki [µM] |
| --- | --- |
| B1 | 1.5 |
| B2 | 4.7 |
| B3 | 7.1 |
| B4 | 3 |
| B5 | 8.7 |
| B6 | 9.3 |
| B7 | 6.6 |
| B8 | 15.8 |
| B9 | 3.7 |
| B10 | 11.5 |
| B11 | 19.6 |
| B12 | 8.9 |
| B13 | 16.4 |
| B14 | 24.3 |
| B15 | 7.9 |
| B16 | 2 |
| B17 | 1.4 |
| B18 | 3.3 |
